# B1: pre-let-7 stem (stem-fusion) (structured_RNA)
# RNA: GUAUAGUUCAACUAUAC
# B2: DENV-SL (structured_RNA)
# RNA: GCAGGUCGGAUUAAGCCAUAGUACGGGAAAAACUAUGCUACCUG
# B3: Lnczc3h7a-SL (structured_RNA)
# RNA: UUUUAUCUGAGUUGGAGGUGAAG
# B4: roX2 stem-loop (SL7 in text, SL6 in Table 2) (structured_RNA)
# RNA: GUGUAAAAUGAUGGAAUAUAUACUAUCGUUUUACGC
# B5: TRIM25 CC-PRY/SPRY (aa 189-630) (domain or fragment, human, UniProt Q14258 189-630, looked up)
# chain: ASLSQASADLEATLRHKLTVMYSQINGASRALDDVRNRQQDVRMTANRKVEQLQQEYTEMKALLDASETTSTRKIKEEEKRVNSKFDTIYQILLKKKSEIQTLKEEIEQSLTKRDEFEFLEKASKLRGISTKPVYIPEVELNHKLIKGIHQSTIDLKNELKQCIGRLQEPTPSSGDPGEHDPASTHKSTRPVKKVSKEEKKSKKPPPVPALPSKLPTFGAPEQLVDLKQAGLEAAAKATSSHPNSTSLKAKVLETFLAKSRPELLEYYIKVILDYNTAHNKVALSECYTVASVAEMPQNYRPHPQRFTYCSQVLGLHCYKKGIHYWEVELQKNNFCGVGICYGSMNRQGPESRLGRNSASWCVEWFNTKISAWHNNVEKTLPSTKATRVGVLLNCDHGFVIFFAVADKVHLMYKFRVDFTEALYPAFWVFSAGATLSICSPK
# notes: TRIM25 coiled-coil (CC), L2 linker and PRY/SPRY domain, aa 189-630; also called TRIM25 189-630
# B6: pre-let-7 loop (ssRNA)
# RNA: UAAAAGGAGAU
# Tests used:
# TRIM25 PRY/SPRY [1] = target: T1, TRIM25 PRY/SPRY (UniProt Q14258 439-630); test: NMR; CSPs at site 2 only; ITC and filter binding: 20 mM MES pH 6.5, 75 mM NaCl, 0.5 mM TCEP (ITC 20 C, filter binding on ice); NMR: 20 mM Na phosphate pH 6.5, 150 mM NaCl, 2 mM TCEP, 293 K; conditions: protein: recombinant; tags: His-Trx (removed); chain copies: 3; hairpin
# TRIM25 CC-PRY/SPRY [2] = target: T2, TRIM25 CC-PRY/SPRY (UniProt Q14258 189-630); test: ITC; second fitted site, N 0.08; ITC and filter binding: 20 mM MES pH 6.5, 75 mM NaCl, 0.5 mM TCEP (ITC 20 C, filter binding on ice); NMR: 20 mM Na phosphate pH 6.5, 150 mM NaCl, 2 mM TCEP, 293 K; conditions: protein: recombinant; tags: His-Trx (removed); chain copies: 2; hairpin
# TRIM25 CC-PRY/SPRY [3] = target: T2, TRIM25 CC-PRY/SPRY; test: ITC; first of two fitted sites (second 106 nM); ITC and filter binding: 20 mM MES pH 6.5, 75 mM NaCl, 0.5 mM TCEP (ITC 20 C, filter binding on ice); NMR: 20 mM Na phosphate pH 6.5, 150 mM NaCl, 2 mM TCEP, 293 K; conditions: protein: recombinant; tags: His-Trx (removed); chain copies: 2; hairpin
# [4] = target: T3, TRIM25 CC-PRY/SPRY penta-mutant (UniProt Q14258 189-630, K283A;K285A;H505E;K508E;K602E); test: ITC; ITC and filter binding: 20 mM MES pH 6.5, 75 mM NaCl, 0.5 mM TCEP (ITC 20 C, filter binding on ice); NMR: 20 mM Na phosphate pH 6.5, 150 mM NaCl, 2 mM TCEP, 293 K; conditions: protein: recombinant; tags: His-Trx (removed); chain copies: 2; hairpin
# Target sequence in this assay (Q14258 189-630 K283A/K285A/H505E/K508E/K602E): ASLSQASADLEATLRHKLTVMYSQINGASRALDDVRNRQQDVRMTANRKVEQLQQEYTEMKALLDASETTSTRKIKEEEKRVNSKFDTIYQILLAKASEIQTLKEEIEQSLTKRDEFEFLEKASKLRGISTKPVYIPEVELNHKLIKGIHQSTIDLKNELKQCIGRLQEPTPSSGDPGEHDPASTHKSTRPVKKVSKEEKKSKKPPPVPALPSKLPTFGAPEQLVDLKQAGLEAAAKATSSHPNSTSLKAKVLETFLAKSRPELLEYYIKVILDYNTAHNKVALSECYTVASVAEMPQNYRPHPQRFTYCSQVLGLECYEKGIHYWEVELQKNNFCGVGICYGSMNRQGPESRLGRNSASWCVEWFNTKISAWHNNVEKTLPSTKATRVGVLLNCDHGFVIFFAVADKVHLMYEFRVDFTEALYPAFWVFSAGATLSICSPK
# TRIM25 CC-PRY/SPRY [5] = target: T2, TRIM25 CC-PRY/SPRY; test: filter binding; ITC and filter binding: 20 mM MES pH 6.5, 75 mM NaCl, 0.5 mM TCEP (ITC 20 C, filter binding on ice); NMR: 20 mM Na phosphate pH 6.5, 150 mM NaCl, 2 mM TCEP, 293 K; conditions: protein: recombinant, tags: His-Trx (removed), chain copies: 2, hairpin
# TRIM25 CC-PRY/SPRY [6] = target: T2, TRIM25 CC-PRY/SPRY; test: ITC; first of two fitted sites; ITC and filter binding: 20 mM MES pH 6.5, 75 mM NaCl, 0.5 mM TCEP (ITC 20 C, filter binding on ice); NMR: 20 mM Na phosphate pH 6.5, 150 mM NaCl, 2 mM TCEP, 293 K; conditions: protein: recombinant; tags: His-Trx (removed); chain copies: 2; hairpin
# [7] = target: T3, TRIM25 CC-PRY/SPRY penta-mutant; test: ITC; no binding detected; ITC and filter binding: 20 mM MES pH 6.5, 75 mM NaCl, 0.5 mM TCEP (ITC 20 C, filter binding on ice); NMR: 20 mM Na phosphate pH 6.5, 150 mM NaCl, 2 mM TCEP, 293 K; conditions: protein: recombinant; tags: His-Trx (removed); chain copies: 2; hairpin
# TRIM25 CC-PRY/SPRY [8] = target: T2, TRIM25 CC-PRY/SPRY; test: ITC; second fitted site, N 0.10; ITC and filter binding: 20 mM MES pH 6.5, 75 mM NaCl, 0.5 mM TCEP (ITC 20 C, filter binding on ice); NMR: 20 mM Na phosphate pH 6.5, 150 mM NaCl, 2 mM TCEP, 293 K; conditions: protein: recombinant; tags: His-Trx (removed); chain copies: 2; hairpin
# [9] = target: the molecule itself; test: NMR titration; CC-PRY/SPRY with pre-let-7 RNA added; domain-domain interaction within the construct; 1H,15N-HSQC
# TRIM25 PRY/SPRY [10] = target: T1, TRIM25 PRY/SPRY; test: ITC; ITC and filter binding: 20 mM MES pH 6.5, 75 mM NaCl, 0.5 mM TCEP (ITC 20 C, filter binding on ice); NMR: 20 mM Na phosphate pH 6.5, 150 mM NaCl, 2 mM TCEP, 293 K; conditions: protein: recombinant; tags: His-Trx (removed); single strand
# TRIM25 CC-PRY/SPRY [11] = target: T2, TRIM25 CC-PRY/SPRY; test: as above; conditions: protein: recombinant; tags: His-Trx (removed); chain copies: 2; single strand
binder,measurement,setting,value
B1,binding result,TRIM25 PRY/SPRY [1],binds
B2,Kd,TRIM25 CC-PRY/SPRY [2],106 ± 35 nM
same,Kd,TRIM25 CC-PRY/SPRY [3],15.2 ± 3 nM
same,Kd,[4],363 ± 84 nM
same,Kd,TRIM25 CC-PRY/SPRY [5],1.63 ± 0.38 nM
B3,Kd,TRIM25 CC-PRY/SPRY [6],486 ± 77 nM
same,binding result,[7],no binding
same,Kd,TRIM25 CC-PRY/SPRY [8],8900 ± 4500 nM
B4,Kd,TRIM25 CC-PRY/SPRY [5]; label: 5' 32P,18.1 ± 2.2 nM
B5,binding result,[9],binds
B6,Kd,TRIM25 PRY/SPRY [10],42000 ± 53000 nM
same,Kd,TRIM25 CC-PRY/SPRY [11],4100 ± 1900 nM

# From publication doi:10.1101/2020.05.04.070177, “Mechanistic insights into RNA binding and RNA-regulated RIG-I ubiquitination by TRIM25” (bioRxiv, 2020)
